These results are taken from paper PMC8852740, “Neutralization of Typhoid Toxin by Alpaca-Derived, Single-Domain Antibodies Targeting the PltB and CdtB Subunits” (Infection and Immunity, 2021).

Residue numbers refer to the chain shown, from its start.

The chains are these.
B1: T2E12 (VHH)
VHH: QVQLAESGGGLVQAGGSLRLSCAASGFTFDDYAVAWFRQAPGKAREMVLCISSSGGSSYYADFVKGRFTVPSNSAKNTVYLQMNSLKPEDTAKYICAVDATYPHSCNALDAWGQGTLVTVSS
B2: T2A7 (VHH)
VHH: QVQLVETGGGLVQTGGSLRLSCAASGFTFDDFAIGWFRQAPGKEREWVSCISSRNGSPYYADSVKGRFTISSDNAKNTVYLQMNSLKPEDTAVYYCKADTDSIVPSCNALDTWGQGTLVTVSS
B3: T2G6 (VHH)
VHH: QVQLVESGGGLVQAGGSLRLSCAASGFTFDDYAIGWFRQAPGKEREMILCINSRSGSTSYYADSVKGRFTVSVNSAKNTAYLQMNSLKPEDTAVYYCAADVTHPHSCNALDAWGQGTLVTVSS
B4: T2G7 (VHH)
VHH: B3 VHH with L11S, S55A, S57M, Y61S, V94K
B5: T2H1 (VHH)
VHH: B3 VHH with M47Q, R54N, S55R, G56A, S57R, D63E, V65I, A80V
B6: T2A1 (VHH)
VHH: QVQLVESGGGLVQAGGSLRLTCAGSGRTFSGDVMGWFRQAPGKEREFVAAISYNGGSTYYADSVKGRFTISRDNAKNTVYLQMDGLKPGDTAVYYCASSREDYGSSLAKGSYDYWGQGTQVTVSS
B7: T2B4 (VHH)
VHH: QVQLVETGGALVQTGGSLRLSCAVSGRSSSTQGLGWYRQAPGKEREFVATINWISGATYYSDSVKGRFSISRDNAENTVSLQMHDLKPDDTAVYYCGAGLSPIARMDYWGQGTQVTVSS
B8: T2D10 (VHH)
VHH: QVQLAETGGGLVQAGGSLRLSCAASGLTSSRYAMAWFRQVPGLEREFVASMTGSGGRTFYADSVKGRFTISRDNAKNTVYLQMNNLNPEDTAVYYCAVEYRDSGTRWSNEYDYWGQGTQVTVSS
B9: T2D2 (VHH)
VHH: QVQLAETGGGLVQPGGSLRLSCAASGFDFSRSTMSWVRQAPGKNIEWVSDINSGGGLTNYGDTVKDRFTISRDNAKNTLYLQMNSLDVEDTAVYYCVKGMWITSDQPRGQGTQVTVSS
B10: T2D8 (VHH)
VHH: QLQLVESGGGLVQPGGSLRLSCAASGFTLDYYAIGWFRQAPGKEREWVSCLGRSSSSTSYVADSVQGRFTISRDNAKNTVYLQMNSLKPEDTAVYYCAADLSSQISSCNALDTWGQGTLVTVSS
B11: T2B12 (VHH)
VHH: QLQLVESGGGSVQAGGSLRLSCAASGFTFGDYAIAFFRQAPGKEREGVSCISTYDGSTYYGDSVKGRFTISSDNAKNTVYLQMNSLKPEDTAVYYCAADRADCGWYYPYDYWGQGTQVTVSS
B12: T2H3 (VHH)
VHH: QVQLAESGGGLVQAGGSLRLSCVASGRTFDINTMAWYRQAPGKQRDFVASSYHGGITNYADSVKGRFTMSRDNAKNTVYLQMNSLKPEDTGVYYCTWRGGGVYWGQGTQVTVSS
B13: T2C7 (VHH)
VHH: QLQLAESGGGLVQAGGSLRLSCVVSGRTDSSYAVGWFRQAPGKEREFVAAIMWSGISTYYADSVKGRFTISLDNAKSTVYVQMNSLKPEDTAVYYCAAWKGATVTDDDPWGQGTQVTVSS
B14: T2E8 (VHH)
VHH: QVQLAESGGGSVQAGGSLRLSCAASGLTFDKYAIGWFRQAPGKGREMVSCINTNYGSTYYADSVKGRFTISSDTAKNTVYLQMNSLSPEDTAVYYCAADTRSSWPSCNALDTWGQGTLVTVSS
B15: T2A3 (VHH)
VHH: B14 VHH with S11L, G44E, M47L, N52S, T58P, T74N, S87K, T112A, W113R
B16: T2C5 (VHH)
VHH: QVQLVETGGGLVQPGGSLRLSCATSGFTFSSTTMTWVRQAPGKGLEWLSGIYSDGRTEYADSVKGRFTISRDNAKNTLYLEMNSLKPEDTAVYFCAKGLLGAERGQGTRVTVSS
B17: T2B2 (VHH)
VHH: QLQLAESGGGLVQAGGSLRLSCAASGRTFNTLHLAWFRQAPGNERDFVASISGSLGSLHYADSVKGRFTISRDNANNTVYLQMNSLKLEDTAVYYCAGAPIYDRFSSSSSSYDYWGQGTQVTVSS
B18: T2H5 (VHH)
VHH: QVQLVETGGGLVQAGGSLRLSCTASGFTFDEYAIGWFRQAPGKEREMILCISSVGGSTYYADSVKGRFTISSDNAKNTMYLQMSSLKPEDTAKYYCAVDVTPPHSCNALDTWGQGTLVTVSS
B19: T2D9 (VHH)
VHH: QLQLVESGGGLVQPGGSLRLSCVLSGSDLAYYNVGWFRQAPGKEREGVACTSRVSDTKYYADSVKARFTVARDNAKNTVNLQMSSLRPEDTAVYSCALLRWCTTEDSDSEGMGHWGKGTLVTVSS
B20: T2C1 (VHH)
VHH: QVQLVETGGGLVQAGGSLRLSCAASGRTFSGDAMGWFRQAPGKEREFVAAISWNGGSTDYADSVKGRFTISRDAKNTVYLQMNSLKPEDTAVYYCASSREDYGSSFLRGSYDYLGQGTQVTVSS
B21: T2B6 (VHH)
VHH: QLQLAESGGGLVQAGDSLRLSCADSGRTFSDYAMGWFRQAPGKEREFVAAISWNGRSTYYIEAVKDRFTISRDNAKKTLYLQMNSLKPEDTAVYYCAAAREDYGSSLVKGSADYWGQGTQVTVSS
B22: T2A2 (VHH)
VHH: QVQLAETGGGLVQPGGSLRLSCAVSGFMVNSYDIGWFRQAPGKEREGVSCISSSGGATHYVDSVKGRFTISRDNAKNMVYLQMNSLKPEDTATYYCAANRMTRCSDYHGYPFWGQGTQVTVSS
B23: T2E11 (VHH)
VHH: QLQLVETGGGLVQPGGSLRLSCAASGFSLDYYAIGWFRQAPGKEREGVGCISSSGSTTKYADSVKGRFTISRDNAKNTVYLQMNSLKPEDTAVYYCAARNPADLNCGAYVLNGEYWGQGTQVTVPS

This test addresses PltB homopentamer, biotinylated (Salmonella enterica serovar Typhi; …, UniProt Q8Z6A3, biotinylated with EZ-link NHS-Biotin (sites not given)).
For B1, the binding result is reported as “binds”.
In the case of B2 it was “binds”; in that of B3, “binds”.
The result for B4 reads “binds”; that for B5, “binds”; that for B6, “binds”.
In the case of B7 it was “binds”; in that of B8, “binds”.
B9: the binding result is “binds”.
In the case of B10 it was “binds”.
The result for B11 reads “binds”.
The result for B12 reads “binds”.
On to B13, for which the binding result is on record as “binds”.
The result for B14 reads “binds”; that for B15, “binds”.
As for B16, the binding result was “binds”.
The result for B17 reads “binds”; that for B18, “binds”; that for B19, “binds”.
In the case of B20 it was “binds”.
B21: the binding result is given as “binds”.
In the case of B22 it was “binds”; in that of B23, “binds”.
